Among the data in ChEMBL document CHEMBL1129640, “Assessment of structural requirements for the monoamine oxidase-B-catalyzed oxidation of 1,4-disubstituted-1,2,3,6-tetrahydropyridine derivatives related to the neurotoxin 1-methyl-4-phenyl-1,2,3,6-tetrahydropyridine” (J Med Chem, 1996) are Km and kcat values, retold here.

Substrate in data set [1]: CCc1ccc(C2=CCN(C)CC2)cc1
The data set can be described thus: (§1) Michaelis-Menten constant was measured against monoamine oxidase B (MAO-B) from beef liver.

Substrate in data set [2]: CN1CC=C(c2ccc(Br)cc2)CC1
The description is as §1.

Substrate in data set [3]: CN1CC=C(c2ccc(Cl)cc2)CC1
Described as §1.

Substrate in data set [4]: CN1CC=C(c2ccc(F)cc2)CC1
The description is as §1.

Substrate in data set [5]: Cc1ccc(C2=CCN(C)CC2)cc1
Described as §1.

Substrate in data set [6]: COc1ccc(C2=CCN(C)CC2)cc1
Put plainly: Michaelis-Menten constant was measured against monoamine oxidase B (MAO-B) from beef liver; Inactive.

Where “and” joins values, the source holds several entries; their conditions need not be identical. Equal entries are not always repeated.

B1: Amine oxidase [flavin-containing] B (Bos taurus) (protein)
chain: MSSKCDVVVVGGGISGMAAAKLLHDSGLNVIVLEARDRVGGRTYTLRNQKVKYVDLGGSYVGPTQNHILRLSKELGLETYKVNEVERLIHHTKGKSYPFRGSFPSVWNPITYLDHNNLWRTMDDMGREIPSDAPWKAPLAEQWDLMTMKELLDKICWTESSKQLAILFVNLCVTAEIHEVSALWFLWYVKQCGGTTRIFSTSNGGQERKFVGGSGQVSERIMDLLGDRVKLERPVIHIDQTGENVLVETLNHELYEAKYVISAVPPVLGMKIHFNPPLPMMRNQLITRVPLGSVIKSIVYYKEPFWRNMDYCGSMIIEGEEAPVAYALDDTKPDGSYPAIIGFILAHKARKLARLTKEERLKKLCDLYAKVLGSQEALHPVHYEEKNWCEEQYSGGCYTSYFPPGIMTQYGRVLRQPVGRIYFAGTETATHWSGYMEGAVEAGERAAREILHAMGKIPEDEIWLPEPESVDVPAKPITTTFLQRHLPSVPGLLKLIGLTTIFSATALGFLAHKRGLLVRI
For orientation: Km means the concentration of substrate that gives half-maximal velocity. A word on the kcat: it is the maximal rate divided by the concentration of active sites. With B1, the Km in data set [1] was 1890 µM; in data set [2], 140 µM; in data set [3], 180 µM and 200 µM; in data set [4], 220 µM; in data set [5] it was 500 µM and 490 µM; in data set [6], 940 µM. Moreover, the kcat in data set [1] is 1.42 s⁻¹; in data set [2], 1.18 s⁻¹; in data set [4], 1.55 s⁻¹; in data set [6] it was 1.13 s⁻¹.
